The labels stand for the following.
B1: TPR t1 (parent)
chain: GACCAAUCUGCCCUCAGAGCUCGAGAACAUCUUCGGAUGCAGAGGAGGCAGGCUUCGGUGGCGCGAUAGCGCCAACGUCCUCAACCUCCAAUGCAUCCCACCACAUGAUGAUGCCUGAAGAGCCUUGGUUUUUUG

The variants in the data set derive from B1. As to the kind of experiment: polymerase ribozyme fitness, log enrichment relative to wild type (log ratio); higher = more active; in vitro selection for triplet polymerase activity. An outline of the steps:
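A heterodimeric triplet polymerase ribozyme had each of its subunits mutagenized by PCR into a library, which was transcribed. One round of in vitro selection, done in triplicate, annealed each library with a biotinylated primer, its partner subunit and triplets, then incubated it frozen at −7 °C before gel excision of extended constructs, streptavidin-bead capture and RT-PCR. Fitness is the logarithm of genotype enrichment relative to wild-type enrichment, based on Illumina sequencing of inputs and outputs and inverse-variance-weighted replicate averages. A base-2 logarithm is used, and genotypes were kept only with ≥10 input reads and ≥1 read per output.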
Regarding G10U C82U, the “polymerase ribozyme fitness (log ratio)” value was -0.583.
Turning to G10U C82A U92G U116C A119U, the “polymerase ribozyme fitness (log ratio)” value was -5.07.
As for G10U C70U U78C C82G, the figure is -2.45; as for G10U G52U G61U G127A, -2.92; as for C11A C12U G57U U87G G93A C102A, -4.56.
Turning to G10U U32C C56A C72A, the “polymerase ribozyme fitness (log ratio)” value is -1.43.
As to G10U G48U G63A C85U C86G, the “polymerase ribozyme fitness (log ratio)” value was -3.3.
G10U C88G G110C: the “polymerase ribozyme fitness (log ratio)” value was -5.78.
For G10U C34A G47A, the “polymerase ribozyme fitness (log ratio)” value is -3.85.
Regarding G10U G48C G60A, the “polymerase ribozyme fitness (log ratio)” value is -0.865.
In the case of G10U C40G C124U U129A, the “polymerase ribozyme fitness (log ratio)” value was -1.91.
For G10U G42U A91C U106A U112A, the “polymerase ribozyme fitness (log ratio)” value is -0.271.
Take C11A A37U C62A C102A: the “polymerase ribozyme fitness (log ratio)” value was -5.51.
The value for G10U C20U A43C A50C C79G C88U A121G was -4.86; that for G10U C20A was -3.25; that for C11A A118G was -1.55.
As for G10U C22G U106A G120C, the figure is -2.7; as for G10U C22G G60C C88A, -4.88; as for C11A C13G C31U A46U U109G, -7.98.
As for G10U U87G C88G C98U G113A, the figure is -1.98.
Regarding G10U G71U, the “polymerase ribozyme fitness (log ratio)” value was -0.746.
Regarding G10U G71A, the “polymerase ribozyme fitness (log ratio)” value is -0.104.
For the variant G10U C76A G127C, the “polymerase ribozyme fitness (log ratio)” value is -2.18.
Regarding G10U U30C, the “polymerase ribozyme fitness (log ratio)” value is -2.43.
As for G10U G113C U125A, the figure is -3.42; as for G10U C40U G52U C64U, -1.92.
The value for G10U G42U C104A G120C was -4.1; that for G10U C40A G77A G128U was -3.6.
As for C11A A24C G122A C123G, the figure is -5.76; as for G10U G122A, 0.462.
Take G10U G63C: the “polymerase ribozyme fitness (log ratio)” value is -0.933.
With G10U G63A, the “polymerase ribozyme fitness (log ratio)” value is -1.08.
The value for G10U U59C C85U was -0.716.
As for G10U C13G C72U, the figure is -0.677; as for G10U C53G U55A C56A G63A, -2.18; as for G10U C56G A111C, -0.962.
The value for G10U G128U U132C was -0.604; that for C11A C12U G25U C56U G69C C98U G110A was -6.12; that for G10U G45A U78A A100U was -1.09.
Consider G10U G51A, for which the “polymerase ribozyme fitness (log ratio)” value was -2.56.
As for G10U G51C, the figure is -3.01; as for C11A C12U A37G U78A U131A, -1.88; as for C11A A16G G23U G39C C76U A95C G113U C114G, -7.17.
Take G10U C13U C73U C102G A119U C124A: the “polymerase ribozyme fitness (log ratio)” value was -5.74.
G10U C15U G69U A91C U125A: the “polymerase ribozyme fitness (log ratio)” value was -3.03.
The value for C11A A41U G47A U109A was -5.79.
As for G10U C88U, the figure is -0.654; as for G10U G60A C123G C124A, 3.33; as for G10U G44U C53U U96A U109C, -7.37.
As for G10U G69A A91C, the figure is -7.2.
As for G10U G42A G45A G77C U78G U96C G128A U131G, the “polymerase ribozyme fitness (log ratio)” value is -3.17.
The value for G10U U30C U33C G71U C79U C101A C102G A111U was -7.18; that for G10U C89A G117U was -4.64.
On to C11A A95U U96A C101G U106C C124A, for which the “polymerase ribozyme fitness (log ratio)” value is -3.67.
As for G10U G93U U129C, the figure is -1.98; as for G10U C40G G48U C102U, -3.36.
As for G10U C64U G113C, the figure is -1.87.
G10U C20A A66G: the “polymerase ribozyme fitness (log ratio)” value was -4.29.
For the variant G10U G51C U106C, the “polymerase ribozyme fitness (log ratio)” value is -3.5.
With G10U G63U G113C, the “polymerase ribozyme fitness (log ratio)” value was -4.79.
The value for G10U C72A C124G was 1; that for G10U C49U G63A A100C was -3.83; that for G10U U30C C124G was -2.38.
On to C11A A84G, for which the “polymerase ribozyme fitness (log ratio)” value is -2.26.
As to C11A A29U U59A C70U G120A, the “polymerase ribozyme fitness (log ratio)” value was -1.3.
In the case of G10U G19A G36C C79U, the “polymerase ribozyme fitness (log ratio)” value is -3.73.
The value for C11A C13G C20U C53U U78G was -2.65.
As for G10U C15G G120A, the figure is -1.69; as for G10U C22A C72U U92G A105U A118G, -7.38.
The value for G10U C34A G69U G122A was 0.552; that for G10U G58U U78C G122A C124U was 0.946.
On to G10U U32C C56A C64A, for which the “polymerase ribozyme fitness (log ratio)” value is -6.8.
In the case of C11A A50G U81A, the “polymerase ribozyme fitness (log ratio)” value was -2.23.
As for G10U C56G A68G, the figure is -4.36.
G10U U112G C123G: the “polymerase ribozyme fitness (log ratio)” value stood at 0.673.
As for G10U C73U, the figure is -0.579; as for G10U C97U, -0.693; as for G10U G63U C79U U132A, -0.795.
With C11A A37G U59A U131C, the “polymerase ribozyme fitness (log ratio)” value is -1.86.
The value for G10U C20A A50C C72U C114U was -4.68; that for C11A A119U was -1.67.
Turning to G10U U92A A111G, the “polymerase ribozyme fitness (log ratio)” value is -4.02.
With G10U U32G C102U C124U U126G, the “polymerase ribozyme fitness (log ratio)” value is -7.39.
The value for G10U C62U A111C G117C was -5.6.

(Values after the RNAGym collection of RNA variant scans (doi:10.1073/pnas.2313332121).)
